From the supplement of paper PMC11246515
± gives the standard deviation of the averaged measurements.

Test: total protein half-life in vivo (active degradation + dilution); higher = more stable protein
[1] = E. coli NCM3722 delta-clpP delta-lon delta-hslV, growth: N-lim chemostat, doubling time 6 h
[2] = E. coli NCM3722 delta-hslV, growth: N-lim chemostat, doubling time 6 h
[3] = E. coli NCM3722 delta-lon, growth: N-lim chemostat, doubling time 6 h
[4] = E. coli NCM3722 delta-smpB, growth: N-lim chemostat, doubling time 6 h
[5] = wild type E. coli NCM3722, growth: C-lim chemostat, doubling time 6 h
[6] = wild type E. coli NCM3722, growth: C-lim chemostat, doubling time 12 h
[7] = wild type E. coli NCM3722, growth: N-lim chemostat, doubling time 6 h
[8] = wild type E. coli NCM3722, growth: N-lim chemostat, doubling time 12 h
[9] = wild type E. coli NCM3722, growth: P-lim chemostat, doubling time 6 h
[10] = wild type E. coli NCM3722, growth: P-lim chemostat, doubling time 12 h
[11] = E. coli NCM3722 delta-clpP, growth: N-lim chemostat, doubling time 6 h
[12] = wild type E. coli NCM3722, growth: C-lim chemostat, doubling time 3 h

Sequence: MTDSELMQLSEQVGQALKARGATVTTAESCTGGWVAKVITDIAGSSAWFERGFVTYSNEAKAQMIGVREETLAQHGAVSEPVVVEMAIGALKAARADYAVSISGIAGPDGGSEEKPVGTVWFAFATARGEGITRRECFSGDRDAVRRQATAYALQTLWQQFLQNT [P0A6G3]
- total protein half-life in vivo [1]: 6 ± 0.73 h
- total protein half-life in vivo [2]: 4.97 ± 0.2 h
- total protein half-life in vivo [3]: 5.11 ± 0.27 h
- total protein half-life in vivo [4]: 4.06 ± 0.093 h
- total protein half-life in vivo [5]: 5.59 ± 0.56 h
- total protein half-life in vivo [6]: 11 ± 1.9 h
- total protein half-life in vivo [7]: 4.67 ± 0.057 h
- total protein half-life in vivo [8]: 7.78 ± 0.54 h
- total protein half-life in vivo [9]: 5.897 ± 0.055 h
- total protein half-life in vivo [10]: 11.7 ± 0.88 h

Sequence: MDYFTLFGLPARYQLDTQALSLRFQDLQRQYHPDKFASGSQAEQLAAVQQSATINQAWQTLRHPLMRAEYLLSLHGFDLASEQHTVRDTAFLMEQLELREELDEIEQAKDEARLESFIKRVKKMFDTRHQLMVEQLDNETWDAAADTVRKLRFLDKLRSSAEQLEEKLLDF [P0A6L9]
- total protein half-life in vivo [1]: 4.89 ± 0.7 h
- total protein half-life in vivo [11]: 3.99 ± 0.75 h
- total protein half-life in vivo [2]: 3.26 ± 0.27 h
- total protein half-life in vivo [3]: 4.06 ± 0.18 h
- total protein half-life in vivo [4]: 3.04 ± 0.18 h
- total protein half-life in vivo [12]: 2.9 ± 0.23 h
- total protein half-life in vivo [5]: 4.74 ± 0.099 h
- total protein half-life in vivo [6]: 9.84 ± 1 h
- total protein half-life in vivo [7]: 3.07 ± 0.24 h
- total protein half-life in vivo [8]: 4.57 ± 0.19 h
- total protein half-life in vivo [9]: 5.45 ± 0.78 h
- total protein half-life in vivo [10]: 9.39 ± 0.82 h

Sequence: MSVIIVGGGMAGATLALAISRLSHGALPVHLIEATAPESHAHPGFDGRAIALAAGTCQQLARIGVWQSLADCATAITTVHVSDRGHAGFVTLAAEDYQLAALGQVVELHNVGQRLFALLRKAPGVTLHCPDRVANVARTQSHVEVTLESGETLTGRVLVAADGTHSALATACGVDWQQEPYEQLAVIANVATSVAHEGRAFERFTQHGPLAMLPMSDGRCSLVWCHPLERREEVLSWSDEKFCRELQSAFGWRLGKITHAGKRSAYPLALTHAARSITHRTVLVGNAAQTLHPIAGQGFNLGMRDVMSLAETLTQAQERGEDMGDYGVLCRYQQRRQSDREATIGVTDSLVHLFANRWAPLVVGRNIGLMTMELFTPARDVLAQRTLGWVAR
- total protein half-life in vivo [1]: 5.61 ± 0.23 h
- total protein half-life in vivo [11]: 4.77 ± 0.24 h
- total protein half-life in vivo [2]: 6.05 ± 2.4 h
- total protein half-life in vivo [3]: 3.69 ± 0.053 h
- total protein half-life in vivo [4]: 4.23 ± 0.17 h
- total protein half-life in vivo [12]: 2.72 ± 0.17 h
- total protein half-life in vivo [5]: 4.42 ± 0.18 h
- total protein half-life in vivo [6]: 6.83 ± 0.21 h
- total protein half-life in vivo [7]: 4.24 ± 1.1 h
- total protein half-life in vivo [8]: 9.5 h
- total protein half-life in vivo [9]: 2.82 ± 0.096 h
- total protein half-life in vivo [10]: 4.59 ± 0.42 h

Sequence: MAKNIPFKLILEKAKDYQADMTRFLRDMVAIPSESCDEKRVVHRIKEEMEKVGFDKVEIDPMGNVLGYIGHGPRLVAMDAHIDTVGIGNIKNWDFDPYEGMETDELIGGRGTSDQEGGMASMVYAGKIIKDLGLEDEYTLLVTGTVQEEDCDGLCWQYIIEQSGIRPEFVVSTEPTDCQVYRGQRGRMEIRIDVQGVSCHGSAPERGDNAIFKMGPILGELQELSQRLGYDEFLGKGTLTVSEIFFTSPSRCAVADSCAVSIDRRLTWGETWEGALDEIRALPAVQKANAVVSMYNYDRPSWTGLVYPTECYFPTWKVEEDHFTVKALVNAYEGLFGKAPVVDKWTFSTNGVSIMGRHGIPVIGFGPGKEPEAHAPNEKTWKSHLVTCAAMYAAIPLSWLATE
- total protein half-life in vivo [2]: 3.34 ± 0.23 h
- total protein half-life in vivo [3]: > 8 h
- total protein half-life in vivo [4]: 3.6 h
- total protein half-life in vivo [12]: 2.93 ± 0.037 h
- total protein half-life in vivo [5]: 5.23 ± 1.1 h
- total protein half-life in vivo [6]: 8.78 ± 0.98 h
- total protein half-life in vivo [7]: 3.7 ± 0.69 h
- total protein half-life in vivo [8]: 6.26 ± 0.46 h
- total protein half-life in vivo [9]: 5.23 h
- total protein half-life in vivo [10]: 9.14 ± 1.7 h

Sequence: MKPYQRQFIEFALSKQVLKFGEFTLKSGRKSPYFFNAGLFNTGRDLALLGRFYAEALVDSGIEFDLLFGPAYKGIPIATTTAVALAEHHDLDLPYCFNRKEAKDHGEGGNLVGSALQGRVMLVDDVITAGTAIRESMEIIQANGATLAGVLISLDRQERGRGEISAIQEVERDYNCKVISIITLKDLIAYLEEKPEMAEHLAAVKAYREEFGV [P0A7E3]
- total protein half-life in vivo [1]: 4.07 ± 0.75 h
- total protein half-life in vivo [11]: 3.84 ± 0.28 h
- total protein half-life in vivo [2]: 3.61 h
- total protein half-life in vivo [3]: 4.35 ± 0.61 h
- total protein half-life in vivo [4]: 3.83 ± 0.08 h
- total protein half-life in vivo [12]: 2.87 ± 0.3 h
- total protein half-life in vivo [5]: 5.31 ± 0.18 h
- total protein half-life in vivo [6]: 9.3 ± 3.5 h
- total protein half-life in vivo [7]: 3.93 ± 0.33 h
- total protein half-life in vivo [8]: 6.396 ± 0.051 h
- total protein half-life in vivo [9]: 5.62 ± 0.25 h
- total protein half-life in vivo [10]: 10.7 ± 0.39 h

Sequence: MPNITWCDLPEDVSLWPGLPLSLSGDEVMPLDYHAGRSGWLLYGRGLDKQRLTQYQSKLGAAMVIVAAWCVEDYQVIRLAGSLTARATRLAHEAQLDVAPLGKIPHLRTPGLLVMDMDSTAIQIECIDEIAKLAGTGEMVAEVTERAMRGELDFTASLRSRVATLKGADANILQQVRENLPLMPGLTQLVLKLETLGWKVAIASGGFTFFAEYLRDKLRLTAVVANELEIMDGKFTGNVIGDIVDAQYKAKTLTRLAQEYEIPLAQTVAIGDGANDLPMIKAAGLGIAYHAKPKVNEKAEVTIRHADLMGVFCILSGSLNQK [P0AGB0]
- total protein half-life in vivo [1]: 5.32 ± 0.097 h
- total protein half-life in vivo [11]: 5.09 ± 0.32 h
- total protein half-life in vivo [2]: 5.09 ± 0.31 h
- total protein half-life in vivo [3]: 5.43 ± 0.31 h
- total protein half-life in vivo [4]: 5.08 ± 0.26 h
- total protein half-life in vivo [12]: 3.01 ± 0.1 h
- total protein half-life in vivo [5]: 5.07 ± 0.26 h
- total protein half-life in vivo [6]: 10.3 ± 0.85 h
- total protein half-life in vivo [7]: 4.819 ± 0.032 h
- total protein half-life in vivo [8]: 8.79 ± 0.6 h
- total protein half-life in vivo [9]: 5.83 ± 0.23 h
- total protein half-life in vivo [10]: 11.5 ± 0.32 h

Sequence: MSANTEAQGSGRGLEAMKWVVVVALLLVAIVGNYLYRDIMLPLRALAVVILIAAAGGVALLTTKGKATVAFAREARTEVRKVIWPTRQETLHTTLIVAAVTAVMSLILWGLDGILVRLVSFITGLRF [P0AG96]
- total protein half-life in vivo [1]: 4.72 h
- total protein half-life in vivo [11]: 3.93 h
- total protein half-life in vivo [2]: 4.78 ± 0.21 h
- total protein half-life in vivo [3]: 4.6239 ± 0.0021 h
- total protein half-life in vivo [4]: 4.69 ± 0.097 h
- total protein half-life in vivo [12]: 2.81 ± 0.067 h
- total protein half-life in vivo [5]: 5.11 ± 0.16 h
- total protein half-life in vivo [6]: 9.61 h
- total protein half-life in vivo [7]: 4.48 ± 0.26 h
- total protein half-life in vivo [8]: 8.61 ± 1.6 h
- total protein half-life in vivo [9]: 4.43 h
- total protein half-life in vivo [10]: 8.75 ± 1.2 h

Sequence: MMKKFIAPLLALLVSGCQIDPYTHAPTLTSTDWYDVGMEDAISGSAIKDDDAFSDSQADRGLYLKGYAEGQKKTCQTDFTYARGLSGKSFPASCNNVENASQLHEVWQKGADENASTIRLN
- total protein half-life in vivo [1]: 3.02 ± 0.51 h
- total protein half-life in vivo [11]: 3.75 ± 0.11 h
- total protein half-life in vivo [2]: 4.8 h
- total protein half-life in vivo [4]: 3.95 ± 0.7 h
- total protein half-life in vivo [12]: 1.57 h
- total protein half-life in vivo [5]: 5.17 ± 0.12 h
- total protein half-life in vivo [6]: 8.56 ± 0.22 h
- total protein half-life in vivo [7]: 3.97 h
- total protein half-life in vivo [8]: 6.57 ± 0.068 h
- total protein half-life in vivo [9]: 4.95 h
- total protein half-life in vivo [10]: 10.9 h
